Assays:
duligotuzumab meFab = experiment: single molecule localization microscopy
duligotuzumab memAb = experiment: single molecule localization microscopy

meditope-Alexa Fluor 647 (peptide)
stoichiometry N (duligotuzumab meFab): 1 | stoichiometry N (duligotuzumab memAb): 2
